The data set deals with the molecule itself. Put plainly: AUC; sedimentation velocity, 50,000 rpm, absorbance optics, c(s) analysis; physiological ionic strength, buffers with Ca2+ or EDTA; 0.8-2.2 uM for full-length MASPs; dimer to monomers.

B1: rat MASP-2 CUB1-EGF-CUB2 (MASP-2 3D) (domain or fragment)
chain: SKWPEPVFGRLVSLGFPEKYGNHQDRSWTLTAPPGFRLRLYFTHFNLELSYRCEYDFVKLTSGTKVLATLCGQESTDTERAPGNDTFYSLGPSLKVTFHSDYSNEKPFTGFEAFYAAEDVDECRTSLGDSVPCDHYCHNYLGGYYCSCRVGYILHQNKHTCSALCSGQVFTGRSGFLSSPEYPQPYPKLSSCAYNIRLEEGFSITLDFVESFDVEMHPEAQCPYDSLKIQTDKREYGPFCGKTLPPRIETDSNKVTITFTTDESGNHTGWKIHYTSTAQP
modifications: N-glycosylated (glycosylation sites shown in Figure 1)
notes: Homodimer; production details are in the Supplemental Information; source: Chinese hamster ovary cells, purified (gel filtration, Superdex 200 16/60); not shown: His6, C-terminal, kept
B1: the “stoichiometry N” value is 2.
